What was measured:
[1] = biological target: T1, periplasmic N-domain of RcpA (RcpAN) (Pseudomonas aeruginosa, UniProt Q9HW96 28-115); test: SEC-MALS; co-expressed (two plasmids) and co-purified RcpC_(33-303)-RcpAN complex; 50 uL at 2 mg/mL on a WTC 015S5 column, 50 mM HEPES, 150 mM NaCl, 200 mM arginine, 1 mM TCEP, pH 8.0; conditions: both partners purified
T1 construct: RcpA outer membrane secretin, Pseudomonas aeruginosa, periplasmic N-domain (9.7 kDa, small globular Ig domain fold); Gene codon optimised, in pET28a; also called His-RcpAN; His-RspAN; source: E. coli BL21 (DE3), purified (Ni-NTA, SEC); also co-expressed with RcpC constructs and co-purified
T1 sequence: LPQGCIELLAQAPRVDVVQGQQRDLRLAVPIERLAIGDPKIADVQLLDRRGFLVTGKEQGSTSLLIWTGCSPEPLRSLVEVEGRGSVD

[2] = biological target: the molecule itself; test: SEC-MALS; single purified protein; 50 uL at 2 mg/mL on a WTC 015S5 column, 50 mM HEPES, 150 mM NaCl, 200 mM arginine, 1 mM TCEP, pH 8.0, 0.8 mL/min

B1: RcpC periplasmic domain (RcpC_(33-303)) (domain or fragment)
chain: NAHAPSVAPASATVDASLEKLERKPVLVASRDLPALAVIGRDDLSVELLRTAPVGSYDRPEALLGKRVWVAVPAGSILSAATLEPGGPLARTIRPDERAMAIAVDEVVGGGGFVLPGDYVDVMLFVRDERDGESTPLAQLVLPGVRVLTYGERIAVGSDGQDRSNQEKDPRPPRTAVLAVPEDGVARLMLASQAGSLRLAIRSKDEELYRREQEGALLQASLGAPSAALSLDQLLERRKPTAPSVRSAAPRVPVANGVTVYRGSAMTHEAP
notes: RcpC, Pseudomonas aeruginosa, residues 33-303 of the full-length protein (RcpC_(1-303)); lacks the N-terminal transmembrane helix; holds D1, D2, linker L3 and the C-terminal β-hairpin; Gene codon optimised, in pET21a; also called RcpCΔN; periplasmic region of RcpC; source: E. coli BL21 (DE3), purified (Ni-NTA, SEC); also co-expressed with RcpAN and co-purified; not shown: His tag (from the Ni-NTA …)
- stoichiometry N [1]: 2 RcpC per RcpA (12:6 RcpC:RcpA)
- stoichiometry N [2]: 12 copies
